Test results reported in patent US20200299347A1 (Merck KGaA, published 2020).

What was measured:
NGF = assay: cell-based or functional assay
FGFR3 = assay: cell-based or functional assay

Chain of NGF (P01138 122-241): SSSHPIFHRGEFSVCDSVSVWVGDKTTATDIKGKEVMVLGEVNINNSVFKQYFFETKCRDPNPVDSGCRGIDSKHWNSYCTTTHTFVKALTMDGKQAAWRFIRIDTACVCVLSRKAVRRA

Binder | anti-NGF IC50 (nM), U2OS TrkA_p75 assay; construct from expiCHO-S (NGF) | FGF18 EC50 (nM), BaF3/FGFR3 assay; construct from expiCHO-S (FGFR3) | anti-NGF IC50 (nM), U2OS TrkA_p75 assay; construct from HEK293 (NGF) | FGF18 EC50 (nM), BaF3/FGFR3 assay; construct from HEK293 (FGFR3)
FGF18 SEED (HO124) (other) EENVDFRIHVENQTRARDDVSRKQLRLYQLYSRTSGKHIQVLGRRISARGEDGDKYAQLLVETDTFGSQVRIKGKETEFYLCMNRKGKLVGKPDGTSKECVFIEKVLENNYTALMSAKYSGWYVGFTKKGRPRKGPKTRENQQDVHFMKRYPKGQPELQKPFKYTTVTKGGSGGSGSGSEPKSSDKTHTCPPCPAPEAAGGPSVFLFPPKPKDTLMISRTPEVTCVVVDVSHEDPEVKFNWYVDGVEVHNAKTKPREEQYNSTYRVVSVLTVLHQDWLNGKEYKCKVSNKALGAPIEKTISKAKGQPREPQVYTLPPPSEELALNELVTLTCLVKGFYPSDIAVEWLQGSQELPREKYLTWAPVLDSDGSFFLYSILRVAAEDWKKGDTFSCSVMHEALHNRFTQKSLDRSPGK heavy: QVQLQESGPGLVKPSETLSLTCTVSGFSLIGYDLNWIRQPPGKGLEWIGIIWGDGTTDYNSAVKSRVTISKDTSKNQFSLKLSSVTAADTAVYYCARGGYWYATSYYFDYWGQGTLVTVSSASTKGPSVFPLAPSSKSTSGGTAALGCLVKDYFPEPVTVSWNSGALTSGVHTFPAVLQSSGLYSLSSVVTVPSSSLGTQTYICNVNHKPSNTKVDKKVEPKSCDKTHTCPPCPAPEAAGGPSVFLFPPKPKDTLMISRTPEVTCVVVDVSHEDPEVKFNWYVDGVEVHNAKTKPREEQYNSTYRVVSVLTVLHQDWLNGKEYKCKVSNKALGAPIEKTISKAKGQPFRPEVHLLPPSREEMTKNQVSLTCLARGFYPKDIAVEWESNGQPENNYKTTPSRQEPSQGTTTFAVTSKLTVDKSRWQQGNVFSCSVMHEALHNHYTQKTISLSPGK light: not shown | 0.89 nM | 0.07 nM | – | –
FGF18 SEED (HO110) (other) EPKSSDKTHTCPPCPAPEAAGGPSVFLFPPKPKDTLMISRTPEVTCVVVDVSHEDPEVKFNWYVDGVEVHNAKTKPREEQYNSTYRVVSVLTVLHQDWLNGKEYKCKVSNKALGAPIEKTISKAKGQPREPQVYTLPPPSEELALNELVTLTCLVKGFYPSDIAVEWLQGSQELPREKYLTWAPVLDSDGSFFLYSILRVAAEDWKKGDTFSCSVMHEALHNRFTQKSLDRSPGKEPKSSDKTHTEENVDFRIHVENQTRARDDVSRKQLRLYQLYSRTSGKHIQVLGRRISARGEDGDKYAQLLVETDTFGSQVRIKGKETEFYLCMNRKGKLVGKPDGTSKECVFIEKVLENNYTALMSAKYSGWYVGFTKKGRPRKGPKTRENQQDVHFMKRYPKGQPELQKPFKYTTVTK heavy: QVQLQESGPGLVKPSETLSLTCTVSGFSLIGYDLNWIRQPPGKGLEWIGIIWGDGTTDYNSAVKSRVTISKDTSKNQFSLKLSSVTAADTAVYYCARGGYWYATSYYFDYWGQGTLVTVSSASTKGPSVFPLAPSSKSTSGGTAALGCLVKDYFPEPVTVSWNSGALTSGVHTFPAVLQSSGLYSLSSVVTVPSSSLGTQTYICNVNHKPSNTKVDKKVEPKSCDKTHTCPPCPAPEAAGGPSVFLFPPKPKDTLMISRTPEVTCVVVDVSHEDPEVKFNWYVDGVEVHNAKTKPREEQYNSTYRVVSVLTVLHQDWLNGKEYKCKVSNKALGAPIEKTISKAKGQPREPQVYTLPPPSEELALNELVTLTCLVKGFYPSDIAVEWLQGSQELPREKYLTWAPVLDSDGSFFLYSILRVAAEDWKKGDTFSCSVMHEALHNRFTQKSLDRSPGK light: not shown | 0.89 nM | 0.02 nM | – | –
FGF18 SEED (HO113) (other) EPKSSDKTHTCPPCPAPEAAGGPSVFLFPPKPKDTLMISRTPEVTCVVVDVSHEDPEVKFNWYVDGVEVHNAKTKPREEQYNSTYRVVSVLTVLHQDWLNGKEYKCKVSNKALGAPIEKTISKAKGQPREPQVYTLPPPSEELALNELVTLTCLVKGFYPSDIAVEWLQGSQELPREKYLTWAPVLDSDGSFFLYSILRVAAEDWKKGDTFSCSVMHEALHNRFTQKSLDRSPGKGGGGSEPKSSDKTHTGGGGSEENVDFRIHVENQTRARDDVSRKQLRLYQLYSRTSGKHIQVLGRRISARGEDGDKYAQLLVETDTFGSQVRIKGKETEFYLCMNRKGKLVGKPDGTSKECVFIEKVLENNYTALMSAKYSGWYVGFTKKGRPRKGPKTRENQQDVHFMKRYPKGQPELQKPFKYTTVTKRSRRIRPTHPA heavy: QVQLQESGPGLVKPSETLSLTCTVSGFSLIGYDLNWIRQPPGKGLEWIGIIWGDGTTDYNSAVKSRVTISKDTSKNQFSLKLSSVTAADTAVYYCARGGYWYATSYYFDYWGQGTLVTVSSASTKGPSVFPLAPSSKSTSGGTAALGCLVKDYFPEPVTVSWNSGALTSGVHTFPAVLQSSGLYSLSSVVTVPSSSLGTQTYICNVNHKPSNTKVDKKVEPKSCDKTHTCPPCPAPEAAGGPSVFLFPPKPKDTLMISRTPEVTCVVVDVSHEDPEVKFNWYVDGVEVHNAKTKPREEQYNSTYRVVSVLTVLHQDWLNGKEYKCKVSNKALGAPIEKTISKAKGQPREPQVYTLPPPSEELALNELVTLTCLVKGFYPSDIAVEWLQGSQELPREKYLTWAPVLDSDGSFFLYSILRVAAEDWKKGDTFSCSVMHEALHNRFTQKSLDRSPGK light: not shown | 0.95 nM | 0.1 nM | – | –
FGF18 SEED (HO114) (other) heavy: QVQLQESGPGLVKPSETLSLTCTVSGFSLIGYDLNWIRQPPGKGLEWIGIIWGDGTTDYNSAVKSRVTISKDTSKNQFSLKLSSVTAADTAVYYCARGGYWYATSYYFDYWGQGTLVTVSSASTKGPSVFPLAPSSKSTSGGTAALGCLVKDYFPEPVTVSWNSGALTSGVHTFPAVLQSSGLYSLSSVVTVPSSSLGTQTYICNVNHKPSNTKVDKKVEPKSCDKTHTCPPCPAPEAAGGPSVFLFPPKPKDTLMISRTPEVTCVVVDVSHEDPEVKFNWYVDGVEVHNAKTKPREEQYNSTYRVVSVLTVLHQDWLNGKEYKCKVSNKALGAPIEKTISKAKGQPFRPEVHLLPPSREEMTKNQVSLTCLARGFYPKDIAVEWESNGQPENNYKTTPSRQEPSQGTTTFAVTSKLTVDKSRWQQGNVFSCSVMHEALHNHYTQKTISLSPGK EPKSSDKTHTCPPCPAPEAAGGPSVFLFPPKPKDTLMISRTPEVTCVVVDVSHEDPEVKFNWYVDGVEVHNAKTKPREEQYNSTYRVVSVLTVLHQDWLNGKEYKCKVSNKALGAPIEKTISKAKGQPREPQVYTLPPPSEELALNELVTLTCLVKGFYPSDIAVEWLQGSQELPREKYLTWAPVLDSDGSFFLYSILRVAAEDWKKGDTFSCSVMHEALHNRFTQKSLDRSPGK light: not shown | 0.88 nM | 0.02 nM | – | –
FGF18 SEED (HOF3) (other) light: not shown heavy: QVQLQESGPGLVKPSETLSLTCTVSGFSLIGYDLNWIRQPPGKGLEWIGIIWGDGTTDYNSAVKSRVTISKDTSKNQFSLKLSSVTAADTAVYYCARGGYWYATSYYFDYWGQGTLVTVSSASTKGPSVFPLAPSSKSTSGGTAALGCLVKDYFPEPVTVSWNSGALTSGVHTFPAVLQSSGLYSLSSVVTVPSSSLGTQTYICNVNHKPSNTKVDKKVEPKSC | 0.98 nM | 0.05 nM | – | –
FGF18_scFv tanezumab (LH) (other) EENVDFRIHVENQTRARDDVSRKQLRLYQLYSRTSGKHIQVLGRRISARGEDGDKYAQLLVETDTFGSQVRIKGKETEFYLCMNRKGKLVGKPDGTSKECVFIEKVLENNYTALMSAKYSGWYVGFTKKGRPRKGPKTRENQQDVHFMKRYPKGQPELQKPFKYTTVTKGGGGSGGGGSGGGGSDIQMTQSPSSLSASVGDRVTITCRASQSISNNLNWYQQKPGKAPKLLIYYTSRFHSGVPSRFSGSGSGTDFTFTISSLQPEDIATYYCQQEHTLPYTFGQGTKLEIKGGGGSGGGGSGGGGSQVQLQESGPGLVKPSETLSLTCTVSGFSLIGYDLNWIRQPPGKGLEWIGIIWGDGTTDYNSAVKSRVTISKDTSKNQFSLKLSSVTAADTAVYYCARGGYWYATSYYFDYWGQGTLVTVSS | – | – | 0.43 nM | 0.16 nM
